Data: article PMC7336809, “AcnSP – A Novel Small Protein Regulator of Aconitase Activity in the Cyanobacterium Synechocystis sp. PCC 6803” (Frontiers in Microbiology, 2020)

What was measured:
[1] = biological target: recombinant Synechocystis 6803 aconitase (AcnB), His-tagged (Synechocystis sp. PCC 6803) (UniProt P74582)
purified protein = substrate: O=C(O)/C=C(/CC(=O)O)C(=O)O; assay: purified protein; format: biochemical, Synechocystis sp. PCC 6803; conditions: 10 mM DTT (reducing), no AcnSP, 50 mM Tris-malate pH 7.5, 30°C, 0.3 mM NADP+, 2 mM Na2EDTA, 10 mM MnCl2

Question: Which Kcat of aconitase with 2 nmol AcnSP added to 2 nmol AcnB, oxidizing conditions (−DTT); control without AcnSP 3.46 [1] does the source give for “synthetic AcnSP peptide (aconitase small protein)” here?
Answer: 3.15 s^–1

Question: And the Kcat of aconitase with 2 nmol AcnSP added to 2 nmol AcnB, reducing conditions (+10 mM DTT); control without AcnSP 14.92 [1]?
Answer: 13.8 s^–1

B1: recombinant AcnB (aconitase B, Slr0665) (Synechocystis sp. PCC 6803 substr. Kazusa) (protein)
chain: MLQAYRRHVADRQKLGIPPLPLNAQQTTELCELLKNPPEAEKEELMMLLRDRVPPGVDEAAYVKAGFLTAIAKGEVTCPLISGQGAVDLLGTMIGGYNVQSLIELLKSKDTNIASAAATALSKTLLVFDAFNDVLHLSDTNGYAKQVIDAWAEGAWFINKPEVPERITVTVFKVPGETNTDDLSPAPHATTRPDIPLHALAMLEAKMPEGLGTIAELKQKGHPVAYVGDVVGTGSSRKSAINSVLWHIGTDIPFVPNKRAGGYILGGKIAPIFFNTAEDSGALPIECDVNQLNTGDVITIYPREGKITNKAGETITTFQLKPETILDEVRAGGRIPLLIGRALTDKTREALGLSPSPLFVRPTAPADTGKGFTLAQKMVGKACGVQGIRPGTSCEPIMTTVGSQDTTGPMTRDELKELACLGFNADLTLQTFCHTAAYPKPVDIKTHKDLPDFFSTRGGVALRPGDGIIHSWLNRMLLPDTVGTGGDSHTRFPLGISFPAGSGLVAFAAALGVMPLDMPESVLVKFTGELQPGVTLRDIVNAIPWVAMQQGKLTVGKGDKVNVFNGRIMEMEGLPDLKVEQAFELTDATAERSCSGSTIKLSEETVAEYLRSNVVLMKNMIARGYQDARTLLRRIAKMEEWLANPSLMSGDADAEYADVIEVNLDEIKEPIVAAPNDPDNVKLMSECAGDVIHEVFIGSCMTNIGHYRAAAKILEGAGTVKGRLWICPPTRMDEQQLREEGIYGIFAAAGARTEMPGCSLCMGNQARVEDGVTVFSTSTRNFNNRMGKGAQVYLGSAELAAVCALLGKIPTVEEYLAIVSEKVAPFEGELYRYLNFNEIDNFEDFGRVIPLDQMPKIEDILGMPVGAK
notes: full-length (868 aa), His-tagged from pET28a(+) (NdeI/SalI), E. coli BL21 (DE3), Ni-NTA; medium supplemented with Fe-citrate for iron-sulfur centers
Question: Which results are given for B1?
Answer: Km (purified protein): 371 ± 20 µM; Vmax (purified protein): 9.04 µmol/min/mg; kcat (purified protein): 14.9 s⁻¹
